Kd data for three molecules are collected here from patent US20210371484A1 (SYLUS, published 2021).

The term Kd denotes the constant that tells how readily two partners part at equilibrium. Low readings indicate higher affinity, high ones lower affinity.

T1: Soluble mouse EPOR chimera protein (mouse, UniProt P14753 25-249)
T1 construct: Bought reagent (R&D Systems), amine-coupled to a carboxymethylated dextran SPR chip; it says only 'soluble' and 'chimera'; also called Receptor mouse EPOR chimera protein; erythropoietin receptor
T1 sequence (looked up): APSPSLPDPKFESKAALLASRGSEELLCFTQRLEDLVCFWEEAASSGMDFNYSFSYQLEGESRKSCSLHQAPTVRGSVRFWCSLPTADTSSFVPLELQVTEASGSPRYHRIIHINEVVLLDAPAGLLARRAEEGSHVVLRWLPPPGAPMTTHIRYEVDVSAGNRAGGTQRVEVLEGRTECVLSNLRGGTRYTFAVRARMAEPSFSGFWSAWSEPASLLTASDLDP

B1: SY-2 (peptide)
peptide: LQLHVLKAVSGLRTLTMIRRALG
notes: Synthetic 23-mer made as a monomer by solid phase synthesis; also called erythropoietin-induced peptide
B2: SY-3 (peptide)
peptide: LQLHVLKAVAGLRTLTMIRRALA
notes: as for B1
B3: SY-1 (peptide)
peptide: LQLHVLKAVSGLRTLTTLLRALG
notes: Synthetic 23-mer made as a monomer by solid phase synthesis; No terminal protecting group is stated for the peptide as tested; also called erythropoietin-induced peptide

The target of the experiment is T1, Soluble mouse EPOR chimera protein. As to the kind of experiment: SPR (Reichert SR 7500C), mouse EPOR chimera amine-coupled on chip, peptide flowed at 5, 2.5 and 1.25 uM. The protocol:
Specifically, the real-time SPR analysis was performed using Reichert SPR Biosensor SR 7500C equipment (Reichert Inc., NY, USA). Receptor mouse EPOR chimera protein (Soluble mouse EPOR chimera protein)(R&D Systems, Minneapolis, Minn., USA) was covalently bonded to a chip (BR-1005-39, Pharmacia Biosensor AB) coated with carboxy methylated dextran matrix by an amine coupling procedure using an amine coupling kit (BR-1000-50, GE Healthcare, USA) according to the manufacturer's manual. Peptides having concentrations of 5, 2.5 and 1.25 μM according to the present disclosure and scrambled peptides were tested by flowing at a flow rate of 5 μl/minute. In addition, the experiment was independently repeated to increase the accuracy. In addition, DMSO was flowed at 5 μl/minute to normalize the signal. After sufficiently inducing the binding of the peptide of an aspect to the receptor, regeneration was induced by injecting 20 μl/minute of 25 mM acetic acid into a sensor chip.
Turning to B1, the equilibrium dissociation constant (Kd) was 1550 µM.

For the molecule B2, the Kd was 2160 µM.

Take B3: the Kd was 1410 µM.
